# From article PMC11853025
# Legend:
# [1] = biological target: iC3b (UniProt P01024); assay: SPR; C3b deposited on a CM5 chip (amine-coupled seed, then convertase-mediated deposition to about 5000 RU), iC3b and C3dg made from it on the chip; αI domains injected as dilution series, 120 s; Biacore T200, 25 °C; HBST (10 mM HEPES, 150 mM NaCl, 0.005% Tween-20, pH 7.4) with 1 mM MgCl2; Langmuir 1:1 fit, KD calculated
# [2] = biological target: iC3b (UniProt P01024); assay: SPR; competitive: αI domains at 5 µM preincubated with simvastatin (3-100 µM), injected over immobilised iC3b or ICAM-1; HBST with 1 mM MgCl2 and 5% DMSO; signal as percent of the non-inhibited signal
Binder,Kd [1] [µM],residual binding activity with simvastatin (percent of the non-inhibited signal) [2] [%]
"CR4 αXI domain, wild type (WT) (domain or fragment) QEQDIVFLIDGSGSISSRNFATMMNFVRAVISQFQRPSTQFSLMQFSNKFQTHFTFEEFRRSSNPLSLLASVHQLQGFTYTATAIQNVVHRLFHASYGARRDAAKILIVITDGKKEGDSLDYKDVIPMADAAGIIRYAIGVGLAFQNRNSWKELNDIASKPSQEHIFKVEDFDALKDIQNQLKEKIFAI",33,
"CR4 αXI domain, high-affinity (HA) variant p.I333G (domain or fragment) QEQDIVFLIDGSGSISSRNFATMMNFVRAVISQFQRPSTQFSLMQFSNKFQTHFTFEEFRRSSNPLSLLASVHQLQGFTYTATAIQNVVHRLFHASYGARRDAAKILIVITDGKKEGDSLDYKDVIPMADAAGIIRYAIGVGLAFQNRNSWKELNDIASKPSQEHIFKVEDFDALKDIQNQLKEKGFAI",2.6,63
